B1: EGFP-EWSR1::FLI1 (natural protein, human, UniProt Q01844 1-264, looked up)
chain: MASTDYSTYSQAAAQQGYSAYTAQPTQGYAQTTQAYGQQSYGTYGQPTDVSYTQAQTTATYGQTAYATSYGQPPTGYTTPTAPQAYSQPVQGYGTGAYDTTTATVTTTQASYAAQSAYGTQPAYPAYGQQPAATAPTRPQDGNKPTETSQPQSSTGGYNQPSLGYGQSNYSYPQVPGSYPMQPVTAPPSYPPTSYSSTQPTSYDQSSYSQQNTYGQPSSYGQQSSYGQQSSYGQQPPTSYPPQTGSYSQAPSQYSQQSSSYGQQPSYDSVRRGAWGNNMNSGLNKSPPLGGAQTISKNTEQRPQPDPYQILGPTSSRLANPGSGQIQLWQFLLELLSDSANASCITWEGTNGEFKMTDPDEVARRWGERKSKPNMNYDKLSRALRYYYDKNIMTKVHGKRYAYKFDFHGIAQALQPHPTESSMYKYPSDISYMPSYHAHQQKVNFVPPHPSSMPVTSSSFFGAASQYWTSPTGGIYPNPNVPRHPNTHVPSHLGSYY
B2: EGFP-∆63EWSR1::FLI1 (domain or fragment, human, UniProt Q01844 64-264, looked up)
chain: TAYATSYGQPPTGYTTPTAPQAYSQPVQGYGTGAYDTTTATVTTTQASYAAQSAYGTQPAYPAYGQQPAATAPTRPQDGNKPTETSQPQSSTGGYNQPSLGYGQSNYSYPQVPGSYPMQPVTAPPSYPPTSYSSTQPTSYDQSSYSQQNTYGQPSSYGQQSSYGQQSSYGQQPPTSYPPQTGSYSQAPSQYSQQSSSYGQQPSYDSVRRGAWGNNMNSGLNKSPPLGGAQTISKNTEQRPQPDPYQILGPTSSRLANPGSGQIQLWQFLLELLSDSANASCITWEGTNGEFKMTDPDEVARRWGERKSKPNMNYDKLSRALRYYYDKNIMTKVHGKRYAYKFDFHGIAQALQPHPTESSMYKYPSDISYMPSYHAHQQKVNFVPPHPSSMPVTSSSFFGAASQYWTSPTGGIYPNPNVPRHPNTHVPSHLGSYY

Target: the molecule itself
Assay: Number and Brightness

Row | Protein | stoichiometry N [molecules]
1 | B1 | 3 to 4
2 | B2 | 3 to 4

Source: paper PMC12263829 (Nature Communications, 2025)
